Drawing on paper PMC5913840, this text covers Kd for 1 sequence.

pKd: −log10 of the molar value.

The target in data set [1] is SavR;SavS (Staphylococcus aureus (NCTC8325?);Staphylococcus aureus (NCTC8325?)) (UniProt Q2FVF8). The data set is described as follows: ITC. Conditions: EMSA: 20 mM Tris-HCl pH 8.0, 100 mM NaCl, 25 C, 20 min; footprinting: same plus 5 mM MgCl2, 1 mM CaCl2, 25 C 30 min; ITC: 20 mM Tris-HCl pH 8.0, 100 mM NaCl ….
Data set [2] relates to SavR (Staphylococcus aureus (NCTC8325?)). The data set is described as follows: ITC. Conditions: EMSA: 20 mM Tris-HCl pH 8.0, 100 mM NaCl, 25 C, 20 min; footprinting: same plus 5 mM MgCl2, 1 mM CaCl2, 25 C 30 min; ITC: 20 mM Tris-HCl pH 8.0, 100 mM NaCl ….

As for “TACGCTAATTATAGCGTACGCACTTGAGTACGTCAA (double strand) [36-bp savRS operator]”, the pKd (in general, −log10 of the Kd, conventionally taken in molar units) in data set [1] is 7.57; in data set [2], 5.04.
